US20150376238A1 (University of Washington, published 2015)

B1: Variant H3 24-8 (V27M, K49E) (designed binder)
chain: GTGMVAISMDTDKISNSFEDCKYFLIMVVSAGWTNTIFNDESGKKEIVEMNVDAIICKNISEENYKKFSKKIEIYHAEGDDVDKNISLFIEGELSKISNPLE
B2: Variant H3 24-3b (V28M) (designed binder)
chain: GTGMVAISMDTDKISNSFEDCKYFLIVMVSAGWTNTIFNDESGKKEIVKMNVDAIICKNISEENYKKFSKKIEIYHAEGDDVDKNISLFIEGELSKISNPLE
B3: Variant H3 24-3a (I2T, V29E) (designed binder)
chain: GTGMVAISMDTDKISNSFEDCKYFLIVVESAGWTNTIFNDESGKKEIVKMNVDAIICKNISEENYKKFSKKIEIYHAEGDDVDKNISLFIEGELSKISNP
B4: Variant H3 24-2 (V27M, F38S, K49E) (designed binder)
chain: GIGMVAISMDTDKISNSFEDCKYFLIMVVSAGWTNTISNDESGKKEIVEMNVDAIICKNISEENYKKFSKKIEIYHAEGDDVDKNISLFIEGELSKISNP

Each binder was assayed against H3 subtype hemagglutinin (strain not stated).

**Q.** Which Kd does the source give for B1 here?
**A.** 14.8 nM

**Q.** Which Kd does the source give for B2 here?
**A.** 12.7 nM

**Q.** B3 was tested. Which Kd did it give?
**A.** 7.92 nM

**Q.** Which Kd does the source give for B4 here?
**A.** 8.97 nM
